Source: article PMC5733030, “Characterizing Isozymes of Chlorite Dismutase for Water Treatment” (Frontiers in Microbiology, 2017)

Assays:
Assay in all cases: chloride ion selective electrode, initial rates, Michaelis-Menten fit
Conditions in all cases: 10 mM phosphate buffer pH 7.0, 21–23°C, soluble protein fraction
[1] = substrate: [O-][Cl+]O; assay type: biochemical, Ideonella dechloratans
Excerpt: chloride ion selective electrode, initial rates, Michaelis-Menten fit on rIdCld

[2] = substrate: [O-][Cl+]O; assay type: biochemical, Nitrobacter winogradskyi
Excerpt: chloride ion selective electrode, initial rates, Michaelis-Menten fit on rNwCld

[3] = substrate: [O-][Cl+]O; assay type: biochemical, Nitrospira defluvii
Excerpt: chloride ion selective electrode, initial rates, Michaelis-Menten fit on rNdCld

B1: rIdCld (Ideonella dechloratans) (protein)
chain: AMNTPVDRAKILSAPGVFVAFSTYKIRPDYFKVALAERKGAADEVMAVLEKHKEKVIVDAYLTRGYEAKSDYFLRVHAYDAVAAQAFLVDFRATRFGMYSDVTESLVGITKALNYISKDKSPDLNKGLSGATYAGDAPRFAFMIPVKKNADWWNLTDEQRLKEMETHTLPTLPFLVNVKRKLYHSTGLDDTDFITYFETNDLGAFNNLMLSLAKVPENKYHVRWGNPTVLGTIQPIENLVKTLSMGN
notes: recombinant, plasmid pET3a-Idcld (Dr. Rova) in E. coli BL21 (DE3); soluble protein fraction, not purified
B1 showed a Km [1] of 320 ± 160 µM.

B2: rNwCld (Nitrobacter winogradskyi Nb-255) (protein)
chain: MTFTVFTGGDSGAWSILSVAPVIGESLMAASHLAIAPSLSLGDTSATTPWQLRGVASHARYVERAEKIALTSVQAGLGRNEATRAALIPIRKSAAWWEMTQDERRAIFEDKSHHIAASLKYLPAIARQLYHCRDIGEPFDFLTWFEYAPEHATMFEDLVGVLRATEEWTYVEREVDIRLARAI
notes: recombinant, plasmid pET21b-Nwcld (Dr. Daims) in E. coli BL21 (DE3); soluble protein fraction, not purified
B2 showed a Km [2] of 380 ± 150 µM.

B3: rNdCld (Nitrospira defluvii) (protein)
chain: ADREKLLTESGVYGTFATFQMDHDWWDLPGESRVISVAEVKGLVEQWSGKILVESYLLRGLSDHADLMFRVHARTLSDTQQFLSAFMGTRLGRHLTSGGLLHGVSKKPTYVAGFPESMKTELQVNGESGSRPYAIVIPIKKDAEWWALDQEARTALMQEHTQAALPYLKTVKRKLYHSTGLDDVDFITYFETERLEDFHNLVRALQQVKEFRHNRRFGHPTLLGTMSPLDEILEKFAQ
notes: recombinant, plasmid pET21b-Ndcld (Dr. Daims) in E. coli BL21 (DE3); soluble protein fraction, not purified
B3 gave a Km [3] of 2500 ± 470 µM.
